Where “and” joins values, the source holds several entries; their conditions need not be identical. Equal values may be shown once.
Key:
human netrin-1 [1] = biological target: T1, human netrin-1 (human, UniProt O95631 25-604, limits assumed); experiment: SPR (Biacore T100), 4C11 captured, netrin-1 as analyte, 25° C.; Exp 1
T1 construct: also called NET1; netrin-I
Description: (§1) Murine 4C11 (IgG1) antibody (SEQ ID NO: 12 and 13) was captured via amine coupled capture molecules. A series with increasing concentrations of netrin-1 was injected. Chip surface with amine coupled capture molecule alone was used as reference control surface for correction of possible buffer-effects or non-specific binding of netrin-I.
(§2) Analyte sample: Classical concentration series were measured at a flow rate of 50 μL/min by consecutive injection of the analyte in 5 or 6 increasing concentrations (c 2-164 nM). Running buffer: 20 mM Hepes pH7.4, 600 mM NaCl, 0.005% TWEEN® 20. The analyte was injected for 3 minutes followed by a dissociation phase of 90 s.
(§3) Kinetic parameters were then calculated by using the usual double referencing (control reference: binding of analyte to capture molecule; Flow Cell: netrin-1 concentration “0” as Blank) and calculation with model ‘titration kinetics 1: 1 binding.

[2] = biological target: T2, FLAG-tagged netrin-1 (Adipogen) (human, UniProt O95631 25-604, limits assumed); experiment: competition ELISA: FLAG-tagged netrin-1 with rising 4C11 on coated UNC5B-Fc, bound netrin-1 detected with anti-FLAG-HRP, luminescence
T2 construct: Bought protein; also called FLAG®-tagged Netrin-1 (APOTECH); not shown: FLAG tag
Description: FIG. 2: Inhibition of Netrin-1 binding onto UNC5B-Fc by 4C11. FLAG®-tagged Netrin-1 (APOTECH) in presence of various concentrations of 4C11 were incubated onto 96-well microtiter plate coated with UNC5B-Fc (Netris). Bound Netrin-1 was detected using an anti-FLAG® antibody conjugated with horseradish peroxidase (Sigma) and a chemiluminescent substrate (PIERCE ECL western blotting substrate). The luminescence was read on a Tecan Infinite F-500 luminometer.
(§4) After three washings with 300 μL of PBS-0.05% TWEEN®-20 (PBS-T), the plate was blocked by addition of 100 μL of PBS-2% BSA and incubated 1 hour at room temperature. After three washings with 300 μL of PBS-T, the plate was incubated for 1 hour at room temperature, with 100 μL of PBS-1% BSA containing 50 ng/mL FLAG®-tagged netrin-1 (Adipogen) and various quantities (0.2 ng to 3000 ng) of the 4C11 antibody. After three washings with 300 μL of PBS-T, 100 μL of an anti-FLAG® M2 monoclonal antibody conjugated to horse radish peroxidase (HRP) (Sigma A8592) diluted 1/5,000 in PBST-1% BSA was added and the plate was incubated 1 hour at room temperature. After three washings with 300 μL of PBS-T, 100 μL of a luminescent substrate of HRP (ECL western blotting substrate, PIERCE) is added. After 5 to 10 minutes, the luminescence was read on a Tecan Infinite F-500 luminometer.

human netrin-1 [3] = biological target: T1, human netrin-1; experiment: SPR (Biacore T100), 4C11 captured, netrin-1 as analyte, 25° C.
Description: as §1, §2, §3

[4] = biological target: T2, FLAG-tagged netrin-1 (Adipogen); experiment: ELISA-type assay, netrin-1 coated on the plate (legend paragraph 28: FLAG-tagged Netrin-1, APOTECH; Example 3: His-tagged Netrin-1, R&D), anti-mouse IgG-HRP, luminescence
Description: FIG. 1: ELISA binding assay of murine 4C11 to human Netrin-1. Various concentrations of 4C11 were incubated onto 96-well microtiter plate coated with FLAG®-tagged Netrin-1 (APOTECH). Bound 4C11 was detected using a goat anti-mouse IgG conjugated with horseradish peroxidase (Jackson Immunoresearch) and a chemiluminescent substrate (PIERCE ECL western blotting substrate). The luminescent was read on a Tecan Infinite F-500 luminometer.

[5] = biological target: T2, FLAG-tagged netrin-1 (Adipogen); experiment: competition ELISA: FLAG-netrin-1 binding to coated UNC5B-Fc
Description: as §4

[6] = biological target: T3, His-tagged Netrin-1 (R&D 6419-N1) (human, UniProt O95631 25-604); experiment: ELISA, coated His-tagged netrin-1, luminescence
T3 construct: Bought protein; also called adsorbed netrin-1; not shown: His tag
Description: White 96-well microtiter plate (Costar 3912 Corning) was incubated overnight at 4° C. with 100 ng of His-tagged Netrin-1 (R&D 6419-N1) in 100 μL of Phosphate buffer saline (PBS). After three washings with 300 μL of PBS-0.05% TWEEN®-20 (PBS-T), the plate was blocked by addition of 100 μL of PBS-3% BSA and incubated 1 hour at room temperature. After three washings with 300 μL of PBS-T, the plate was incubated with various quantities (10 ng to 1200 ng) of the anti-netrin-1 antibody. After three washings with 300 μL of PBS-T, 100 μL of a relevant secondary antibody conjugated to horse radish peroxidase (e.g. goat anti-human IgG (Fc) Sigma A0170 or goat anti-mouse IgG light chain specific (kappa) Jackson Immunoresearch 115-035-174) diluted 1/10,000 in PBST-3% BSA was added and the plate was incubated 1 hour at room temperature. After three washings with 300 μL of PBS-T, 100 μL of a luminescent substrate of HRP (ECL western blotting substrate, PIERCE) is added. After 5 to 10 minutes, the luminescence was read on a Tecan Infinite F-500 luminometer.

- koff (human netrin-1 [1]): 0.0018 s⁻¹
- IC50 (read off the curve) [2]: ~0.6 nM
- Kd (human netrin-1 [3]): 13.3 nM and 12.7 nM
- kon (human netrin-1 [3]): 140000 M⁻¹ s⁻¹
- EC50 (read off the curve) [4]: ~0.03 µg/mL
- IC50 [5]: 0.075 µg/mL and 0.502 nM
- EC50 [6]: 0.057 µg/mL and 0.38 nM
B1: murine 4C11 (IgG1) antibody (antibody, V domains shown)
VH: QAYLQQSGAELVRPGASVKMSCKASGYTFTSYNMHWVKQTPRQGLEWIGAIYPGNGDTSYNQKFKGKATLTVDKSSSTAYMQLSSLTSEDSAVYFCARGGTGFAYWGQGTLVTVSA
VL: SIVMTQTPKFLLVSAGDRVTITCKASQSVSNDVAWYQQKPGQSPKLLIYYASNRYTGVPDRFTGSGYGTDFTFTISTVQAEDLAVYFCQQDYSSPWTFGGGTKLEIKR
notes: also called NET1-M-mAb; 4C11 murine IgG1

From patent US20200079842A1 (NETRIS PHARMA, published 2020)
